Assay results as given in paper PMC10875981.

Target: FCγ receptor II (CD32), endogenous on K562 and U937 cells (human (endogenous in K562 and U937)) (UniProt P12318)
UniProt P12318, sequence (P12318 34-317): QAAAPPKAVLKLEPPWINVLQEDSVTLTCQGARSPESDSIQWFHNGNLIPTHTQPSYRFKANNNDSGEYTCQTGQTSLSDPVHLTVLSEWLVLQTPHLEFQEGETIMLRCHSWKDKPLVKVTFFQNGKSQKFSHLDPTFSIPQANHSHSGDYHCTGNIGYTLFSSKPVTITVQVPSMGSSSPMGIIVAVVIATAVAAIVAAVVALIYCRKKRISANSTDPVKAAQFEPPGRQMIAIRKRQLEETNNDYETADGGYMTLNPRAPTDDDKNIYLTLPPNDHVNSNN

For “anti-Vα24Jα18 TCR mAb (6B11 mAb) (antibody)”, the CD107a^+ iNKT cells (treated with 6B11 mAb 50 ng/mL overnight, washed) after coculture with K562 cells, E/T 2:1, in the presence of the blocking anti-CD32 mAb (10 µg/mL) was 1.8%, the CD107a^+ iNKT cells (treated with 6B11 mAb 50 ng/mL overnight, washed) after coculture with K562 cells, E/T 2:1, with isotype mIgG1 (10 µg/mL) was 52.8% and the CD107a^+ iNKT cells (treated with 6B11 mAb 50 ng/mL overnight, washed) after coculture with U937 cells, E/T 2:1, in the presence of the anti-CD32 mAb was 15.6%. The CD107a^+ iNKT cells (treated with 6B11 mAb 50 ng/mL overnight, washed) after coculture with U937 cells, E/T 2:1, with mIgG1 as a control was 38.3%.
